# Test results published in patent publication US20090208538A1 (ROCKEFELLER UNIVERSITY, published 2009).
# Assays:
# HLA-A*2402 [1] = molecular target: HLA-A*2402 (human); experiment: iTopia affinity;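 also: peptide binding to HLA-A*2402 measured in iTopia kit format across eight serial peptide dilutions, ED50 derived from the resulting titration curve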
# HLA-A*2402 [2] = molecular target: HLA-A*2402 (human); experiment: iTopia off-rate
# HLA-B*0801 [3] = molecular target: HLA-B*0801 (human); experiment: iTopia affinity
# HLA-A*2402 [4] = molecular target: HLA-A*2402 (human); experiment: iTopia net score;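 also: iScore from iTopia software combining peptide binding, affinity over a dilution series and off-rate after warming to body temperature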
# HLA-B*0801 [5] = molecular target: HLA-B*0801 (human); experiment: iTopia net score
# HLA-A*1501 [6] = molecular target: T1, HLA-A*1501 (human); experiment: iTopia affinity
# T1 construct: possibly meant as HLA-B*1501
# HLA-A*1501 [7] = molecular target: T1, HLA-A*1501; experiment: iTopia net score
# HLA-B*0702 [8] = molecular target: HLA-B*0702 (human); experiment: iTopia affinity
# HLA-B*0702 [9] = molecular target: HLA-B*0702 (human); experiment: iTopia off-rate
# HLA-B*0702 [10] = molecular target: HLA-B*0702 (human); experiment: iTopia net score
# HLA-A*0301 [11] = molecular target: HLA-A*0301 (human); experiment: iTopia affinity
# HLA-A*0301 [12] = molecular target: HLA-A*0301 (human); experiment: iTopia off-rate
# HLA-A*1101 [13] = molecular target: HLA-A*1101 (human); experiment: iTopia affinity;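 also: affinity derived from a titration of eight serial peptide dilutions, each run under the same conditions as the binding screen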
# HLA-A*1101 [14] = molecular target: HLA-A*1101 (human); experiment: iTopia off-rate
# HLA-A*0301 [15] = molecular target: HLA-A*0301 (human); experiment: iTopia net score
# HLA-A*1101 [16] = molecular target: HLA-A*1101 (human); experiment: iTopia net score
# HLA-A*0201 [17] = molecular target: T2, HLA-A*0201 (human); experiment: iTopia binding;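 also: each peptide tested for binding to HLA-A2 molecules immobilized on plates, using a commercial screening kit run per its supplied protocol and reagents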
# T2 construct: also called HLA-A2.1; HLA A2.1
# HLA-A*0201 [18] = molecular target: T2, HLA-A*0201; experiment: iTopia affinity;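 also: peptide affinity for plate-bound HLA-A2 molecules (iTopia system), with ED50 derived from an eight-point serial peptide dilution series run under binding assay conditions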
# HLA-A*0201 [19] = molecular target: T2, HLA-A*0201; experiment: iTopia off-rate;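 also: Half-life of peptide complexes with plate-bound HLA-A2, peptides loaded 18 h at 21 C, washed, then held at 37 C over several time points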
# HLA-A*0201 [20] = molecular target: T2, HLA-A*0201; experiment: iTopia net score;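 also: combined score from peptide binding, ED₅₀ and half-life of peptide complexes with plate-bound HLA-A2 molecules, computed by a proprietary formula in iTopia software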
# HLA-A*0101 [21] = molecular target: HLA-A*0101 (human); experiment: iTopia affinity
# HLA-A*0101 [22] = molecular target: HLA-A*0101 (human); experiment: iTopia off-rate
# HLA-A*0101 [23] = molecular target: HLA-A*0101 (human); experiment: iTopia net score
Binder,ED50 (HLA-A*2402 [1]) [µM],t1/2 (HLA-A*2402 [2]),ED50 (HLA-B*0801 [3]) [µM],iScore (HLA-A*2402 [4]),iScore (HLA-B*0801 [5]),ED50 (HLA-A*1501 [6]) [µM],iScore (HLA-A*1501 [7]),binding vs positive control (HLA-A*0201 [17]) [%],ED50 (HLA-A*0201 [18]) [µM],t1/2 (HLA-A*0201 [19]),iScore (HLA-A*0201 [20]),further results
TLLDRNTEL [cdr2 37-45 TLLDRNTEL],56,1.39,360,0.08,0.045,–,–,–,–,–,–,–
QMLQSEHPF [cdr2 259-267 QMLQSEHPF],53,0.25,–,0.082,–,8.3,0.257,–,–,–,–,–
LERQKRVTM [cdr2 211-219 LERQKRVTM],–,–,140,–,0.037,–,–,–,–,–,–,–
RARALELEA [cdr2 244-252 RARALELEA],–,–,–,–,–,48,0.118,–,–,–,–,ED50 (HLA-B*0702 [8]): 14 µM; t1/2 (HLA-B*0702 [9]): 0.47; iScore (HLA-B*0702 [10]): 0.08
LQLAAELGK [cdr2 28-36 LQLAAELGK],–,–,–,–,–,–,–,–,–,–,–,ED50 (HLA-A*0301 [11]): 15 µM; t1/2 (HLA-A*0301 [12]): 1.12; ED50 (HLA-A*1101 [13]): 7.9 µM; t1/2 (HLA-A*1101 [14]): 1; iScore (HLA-A*0301 [15]): 0.086; iScore (HLA-A*1101 [16]): 0.194
HLKKTVTML [cdr2 197-205 HLKKTVTML],89,0.8,37,0.075,0.123,–,–,> 30,10,2.5,0.199,ED50 (HLA-B*0702 [8]): 99 µM; t1/2 (HLA-B*0702 [9]): 0.11; iScore (HLA-B*0702 [10]): 0.022
EQRTKYRSL [cdr2 442-450 EQRTKYRSL],–,–,15,–,0.16,–,–,–,–,–,–,ED50 (HLA-B*0702 [8]): 100 µM; t1/2 (HLA-B*0702 [9]): 1.59; iScore (HLA-B*0702 [10]): 0.031
LQAQLSLER [cdr2 205-213 LQAQLSLER],–,–,–,–,–,–,–,–,–,–,–,ED50 (HLA-A*0301 [11]): 19 µM; t1/2 (HLA-A*0301 [12]): 0.99; ED50 (HLA-A*1101 [13]): 11 µM; t1/2 (HLA-A*1101 [14]): 0.56; iScore (HLA-A*0301 [15]): 0.087; iScore (HLA-A*1101 [16]): 0.118
ALFKEIFSC [cdr2 424-432 ALFKEIFSC],–,–,–,–,–,8.3,0.053,> 30,30,18.7,0.546,–
RQHFVYDHV [cdr2 168-176 RQHFVYDHV],–,–,–,–,–,39,0.088,> 30,6,3.7,0.304,–
LSLERQKRV [cdr2 209-217 LSLERQKRV],–,–,280,–,0.046,–,–,> 30,8.4,1.25,0.139,–
ELYDLRQHF [cdr2 163-171 ELYDLRQHF],3.3,0.23,340,0.095,0.037,–,–,> 30,2.7,0.55,0.132,–
AQLSLERQK [cdr2 207-215 AQLSLERQK],–,–,–,–,–,–,–,–,–,–,–,ED50 (HLA-A*0301 [11]): 25 µM; t1/2 (HLA-A*0301 [12]): 0.97; ED50 (HLA-A*1101 [13]): 5.7 µM; t1/2 (HLA-A*1101 [14]): 1.4; iScore (HLA-A*0301 [15]): 0.075; iScore (HLA-A*1101 [16]): 0.271
CIKKTKQEI [cdr2 432-440 CIKKTKQEI],–,–,240,–,0.054,–,–,–,–,–,–,–
LLEEMFLTV [cdr2 290-298 LLEEMFLTV],–,–,–,–,–,–,–,> 30,0.6,5.9,0.815,ED50 (HLA-A*0101 [21]): 21 µM; t1/2 (HLA-A*0101 [22]): 0.27; iScore (HLA-A*0101 [23]): 0.063
SQSLLEEMF [cdr2 287-295 SQSLLEEMF],14,0.24,–,0.048,–,29,0.062,–,–,–,–,–
